Data taken from patent US10098938B2, “Peptides and combination of peptides for use in immunotherapy against various cancers” (immatics biotechnologies GmbH, priority 2015, dated 2018).

Tests used:
[1] = target: HLA-A*02 (Homo sapiens, UniProt P04439, D140Y/D185E/D98H/E176V/E277Q/G131W/G231S/I119V/I121R/I166T/I218V/L300P/N151K/N90K/P208A/P217A/Q86G/Q94H/R138H/R169H); test: MHC binding assay, UV-ligand exchange with β2m ELISA, HLA-A*02; settings: binding to HLA-A*02 ranged by peptide exchange yield
Text: (§1) Candidate peptides for T cell based therapies according to the present invention were further tested for their MHC binding capacity (affinity). The individual peptide-MHC complexes were produced by UV-ligand exchange, where a UV-sensitive peptide is cleaved upon UV-irradiation, and exchanged with the peptide of interest as analyzed. Only peptide candidates that can effectively bind and stabilize the peptide-receptive MHC molecules prevent dissociation of the MHC complexes. To determine the yield of the exchange reaction, an ELISA was performed based on the detection of the light chain (β2m) of stabilized MHC complexes. The assay was performed as generally described in Rodenko et al. (Rodenko et al., 2006).
(§2) 96 well MAXISorp plates (NUNC) were coated over night with 2 ug/ml streptavidin in PBS at room temperature, washed 4× and blocked for 1 h at 37° C. in 2% BSA containing blocking buffer. Refolded HLA-A*02:01/MLA-001 monomers served as standards, covering the range of 15-500 ng/ml. Peptide-MHC monomers of the UV-exchange reaction were diluted 100 fold in blocking buffer. Samples were incubated for 1 h at 37° C., washed four times, incubated with 2 ug/ml HRP conjugated anti-β2m for 1 h at 37° C., washed again and detected with TMB solution that is stopped with […]. Absorption was measured at 450 nm. Candidate peptides that show a high exchange yield (preferably higher than 50%, most preferred higher than 75%) are generally preferred for a generation and production of antibodies or fragments thereof, and/or T cell receptors or fragments thereof, as they show sufficient avidity to the MHC molecules and prevent dissociation of the MHC complexes.

[2] = system: CD8+ T cells; test: In vitro immunogenicity: T-cell priming with aAPCs loaded with peptide/MHC and anti-CD28, pMHC multimer readout; format: cell-based, human; settings: in vitro immunogenicity of HLA class I peptides; pMHC multimer readout after T-cell priming
Text: In order to obtain information regarding the immunogenicity of the TUMAPs of the present invention, the inventors performed investigations using an in vitro T-cell priming assay based on repeated stimulations of CD8+ T cells with artificial antigen presenting cells (aAPCs) loaded with peptide/MHC complexes and anti-CD28 antibody.
In order to perform in vitro stimulations by artificial antigen presenting cells loaded with peptide-MHC complex (pMHC) and anti-CD28 antibody, the inventors first isolated CD8+ T cells from fresh HLA-A*02 leukapheresis products via positive selection using CD8 microbeads (Miltenyi Biotec, Bergisch-Gladbach, Germany) of healthy donors obtained from the University clinics Mannheim, Germany, after informed consent.
PBMCs and isolated CD8+ lymphocytes were incubated in T-cell medium (TCM) until use consisting of RPMI-Glutamax (Invitrogen, Karlsruhe, Germany) supplemented with 10% heat inactivated human AB serum (PAN-Biotech, Aidenbach, Germany), 100 U/ml Penicillin/100 μg/ml Streptomycin (Cambrex, Cologne, Germany), 1 mM sodium pyruvate (CC Pro, Oberdorla, Germany), 20 μg/ml Gentamycin (Cambrex). 2.5 ng/ml IL7 (PromoCell, Heidelberg, Germany) and 10 U/ml IL-2 (Novartis Pharma, Nürnberg, Germany) were also added to the TCM at this step.
Generation of pMHC/anti-CD28 coated beads, T-cell stimulations and readout was performed in a highly defined in vitro system using four different pMHC molecules per stimulation condition and 8 different pMHC molecules per readout condition.
The purified co-stimulatory mouse IgG2a anti human CD28 Ab 9.3 (Jung et al., 1987) was chemically biotinylated using Sulfo-N-hydroxysuccinimidobiotin as recommended by the manufacturer (Perbio, Bonn, Germany). Beads used were 5.6 μm diameter streptavidin coated polystyrene particles (Bangs Laboratories, Illinois, USA).
pMHC used for positive and negative control stimulations were A*0201/MLA-001 (peptide […] (SEQ ID NO. 303) from modified Melan-A/MART-1) and A*0201/DDX5-001 ([…] from DDX5, SEQ ID NO. 304), respectively.
800.000 beads/200 μl were coated in 96-well plates in the presence of 4×12.5 ng different biotin-pMHC, washed and 600 ng biotin anti-CD28 were added subsequently in a volume of 200 μl. Stimulations were initiated in 96-well plates by co-incubating […] CD8+ T cells with 2×10^5 washed coated beads in 200 μl TCM supplemented with 5 ng/ml IL-12 (PromoCell) for 3 days at 37° C. Half of the medium was then exchanged by fresh TCM supplemented with 80 U/ml IL-2 and incubating was continued for 4 days at 37° C. This stimulation cycle was performed for a total of three times. For the pMHC multimer readout using 8 different pMHC molecules per condition, a two-dimensional combinatorial coding approach was used as previously described (Andersen et al., 2012) with minor modifications encompassing coupling to 5 different fluorochromes. Finally, multimeric analyses were performed by staining the cells with Live/dead near IR dye (Invitrogen, Karlsruhe, Germany), CD8-FITC antibody clone SK1 (BD, Heidelberg, Germany) and fluorescent pMHC multimers. For analysis, a BD LSRII SORP cytometer equipped with appropriate lasers and filters was used. Peptide specific cells were calculated as percentage of total CD8+ cells. Evaluation of multimeric analysis was done using the FlowJo software (Tree Star, Oregon, USA). In vitro priming of specific multimer+ CD8+ lymphocytes was detected by comparing to negative control stimulations.

[3] = system: HLA-A*24; test: MHC binding assay, UV-ligand exchange with β2m ELISA, HLA-A*24; parameters: species or system human; settings: binding to HLA-A*24 ranged by peptide exchange yield
Text: as §1, §2

Substance	Peptide exchange [1]	Peptide exchange [3]	Wells positive [%] [2]
42 (LLDSVSRL; listed as Homo sapiens) [compound 42]	+ (<20% = +)	–	–
100 (ALLGMIIVGV; listed as Homo sapiens) [compound 100]	+ (<20% = +)	–	–
3 (KLEENGDLYL; listed as Homo sapiens) [compound 3]	++++ (> = 75% = ++++)	–	–
229 (AILAHLNTV; listed as Homo sapiens) [compound 229]	++++ (> = 75% = ++++)	–	–
95 (GLLGSLFFL; listed as Homo sapiens) [compound 95]	++++ (> = 75% = ++++)	–	–
147 (YLMDDTVEI; listed as Homo sapiens) [compound 147]	++++ (> = 75% = ++++)	–	–
126 (QMFQYFITV; listed as Homo sapiens) [compound 126]	++++ (> = 75% = ++++)	–	–
245 (SLLDLPLSL; listed as Homo sapiens) [compound 245]	++++ (> = 75% = ++++)	–	–
4 (KLMPGTYTL; listed as Homo sapiens) [compound 4]	++++ (> = 75% = ++++)	–	+ (<20% = +)
248 (YLDRFLAGV; listed as Homo sapiens) [compound 248]	++++ (> = 75% = ++++)	–	–
120 (VTPVTVSAV; listed as Homo sapiens) [compound 120]	+ (<20% = +)	–	–
18 (ILLDLTDNRL; listed as Homo sapiens) [compound 18]	–	–	+ (<20% = +)
84 (ALCPRIHEV; listed as Homo sapiens) [compound 84]	++++ (> = 75% = ++++)	–	–
23 (SLFSDEFKV; listed as Homo sapiens) [compound 23]	–	–	++++ (> = 70% = ++++)
29 (YLLDPSITL; listed as Homo sapiens) [compound 29]	–	–	+ (<20% = +)
207 (AYVVFVSTL; listed as Homo sapiens) [compound 207]	–	–	+ (<20% = +)
258 (LLSERFINV; listed as Homo sapiens) [compound 258]	++++ (> = 75% = ++++)	–	–
268 (QYLGQIQHI; listed as Homo sapiens) [compound 268]	–	–	+ (<20% = +)
196 (LYIDRPLPYL; listed as Homo sapiens) [compound 196]	–	–	++++ (> = 70% = ++++)
163 (DYLKGLASF; listed as Homo sapiens) [compound 163]	–	++++ (> = 75% = ++++)	+ (<20% = +)

The next lines start with results.

Peptide exchange [1]	Peptide exchange [3]	Substance	Wells positive [%] [2]
++++ (> = 75% = ++++)	–	153 (FISERVEVV; listed as Homo sapiens) [compound 153]	–
++++ (> = 75% = ++++)	–	12 (GLLPLLHRA; listed as Homo sapiens) [compound 12]	++++ (> = 70% = ++++)
–	++++ (> = 75% = ++++)	158 (HYSQELSLLYL; listed as Homo sapiens) [compound 158]	+ (<20% = +)
++++ (> = 75% = ++++)	–	14 (ILAKDLFEI; listed as Homo sapiens) [compound 14]	–
–	++++ (> = 75% = ++++)	159 (LYNKGFIYL; listed as Homo sapiens) [compound 159]	++++ (> = 70% = ++++)
++++ (> = 75% = ++++)	–	129 (RLQDILWFL; listed as Homo sapiens) [compound 129]	–
++++ (> = 75% = ++++)	–	133 (ALLPRLHQL; listed as Homo sapiens) [compound 133]	–
–	++++ (> = 75% = ++++)	165 (DYTTWTALL; listed as Homo sapiens) [compound 165]	+ (<20% = +)
++++ (> = 75% = ++++)	–	92 (GLLFSLRSV; listed as Homo sapiens) [compound 92]	–
++++ (> = 75% = ++++)	–	51 (LLFSRLCGA; listed as Homo sapiens) [compound 51]	–
++++ (> = 75% = ++++)	–	1 (LLYPEPWSV; listed as Homo sapiens) [compound 1]	–
++++ (> = 75% = ++++)	–	249 (GLCERLVSL; listed as Homo sapiens) [compound 249]	+ (<20% = +)
–	++++ (> = 75% = ++++)	167 (NYINRILKL; listed as Homo sapiens) [compound 167]	+ (<20% = +)
+ (<20% = +)	–	82 (FIFDEAEKL; listed as Homo sapiens) [compound 82]	–
++++ (> = 75% = ++++)	–	34 (FLLATEVVTV; listed as Homo sapiens) [compound 34]	–
–	++++ (> = 75% = ++++)	204 (TYELRYFQI; listed as Homo sapiens) [compound 204]	+ (<20% = +)
++++ (> = 75% = ++++)	–	16 (YTLDIPVLFGV; listed as Homo sapiens) [compound 16]	–
++++ (> = 75% = ++++)	–	125 (SLADYEHFV; listed as Homo sapiens) [compound 125]	–
++++ (> = 75% = ++++)	–	112 (SLGKFTFDV; listed as Homo sapiens) [compound 112]	–
++++ (> = 75% = ++++)	–	257 (GLYTDPCGV; listed as Homo sapiens) [compound 257]	–
